Like-named read-outs stand apart in the source and are kept apart here.

Test [1] has as its target T1, human PVRIG on cells (human, UniProt Q6DKI7 1-326).
T1 construct: whole, on cells; over-expressed on HEK cells or endogenous on Jurkat and CD8 T cells; also called hPVRIG; HEK hPVRIG cells
T1 sequence (looked up): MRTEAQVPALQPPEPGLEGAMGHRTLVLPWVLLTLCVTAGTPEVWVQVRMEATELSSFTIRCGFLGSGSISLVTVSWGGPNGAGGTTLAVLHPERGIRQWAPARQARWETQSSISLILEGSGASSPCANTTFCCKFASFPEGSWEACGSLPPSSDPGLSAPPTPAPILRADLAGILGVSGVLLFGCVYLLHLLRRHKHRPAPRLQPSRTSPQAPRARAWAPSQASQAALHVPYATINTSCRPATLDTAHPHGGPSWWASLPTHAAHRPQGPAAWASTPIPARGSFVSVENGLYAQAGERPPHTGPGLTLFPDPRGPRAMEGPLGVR
Description: FACS, HEK hPVRIG over HEK parental cells, 3.3ug/ml. For orientation: Flow cytometry measures light scatter and fluorescence of single cells or particles in a stream.

For test [2], the target named is T2, cynomolgus PVRIG on cells (cynomolgus, UniProt A0A2K5WVV8 41-322).
T2 construct: whole, on cells; also called cPVRIG; expi cPVRIG cells
T2 sequence: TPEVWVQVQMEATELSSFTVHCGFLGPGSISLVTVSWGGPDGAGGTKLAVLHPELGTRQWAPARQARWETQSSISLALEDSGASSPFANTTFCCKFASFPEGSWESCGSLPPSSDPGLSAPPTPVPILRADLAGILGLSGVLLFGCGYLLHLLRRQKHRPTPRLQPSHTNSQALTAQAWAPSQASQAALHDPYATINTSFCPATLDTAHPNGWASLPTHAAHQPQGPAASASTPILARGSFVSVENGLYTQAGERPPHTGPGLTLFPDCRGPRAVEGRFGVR
Description: FACS, expi cPVRIG over expi parental cells, 3.3ug/ml.

Test [3] addresses T3, PVRIG (FACS-based competition assay of FIGS. 7 and 15) (Homo sapiens, UniProt Q6DKI7).
T3 construct: made because the format of the assay is only described in U.S. Ser. No. 15/048,967; also called human PVRIG
T3 sequence (receptor, looked up): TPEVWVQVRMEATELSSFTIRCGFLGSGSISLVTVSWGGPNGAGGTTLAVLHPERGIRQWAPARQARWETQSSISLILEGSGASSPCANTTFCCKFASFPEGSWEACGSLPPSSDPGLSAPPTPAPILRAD
Description: FACS-based competition assay of PVRIG blocking; format and competitor not given.

Test [4] concerns the target T2, cynomolgus PVRIG on cells. Nature of the test: FACS, expi cPVRIG over expi parental cells, 3.3ug/ml. The source holds these as a separate data set.
For test [5], the target named is T3, PVRIG (FACS-based competition assay of …). Description: FACS-based competition assay of PVRIG blocking; format and competitor not given. The source holds these as a separate data set.
In test [6] the target is T1, human PVRIG on cells. Nature of the test: FACS, human PBMC, CD56 int. NK cells, 10ug/ml.
In test [7] the target is T1, human PVRIG on cells. Nature of the test: FACS, human PBMC, CD56 int. NK cells, 10ug/ml. This is another data set of the same source.
Test [8] concerns the target T1, human PVRIG on cells. Nature of the test: FACS, HEK hPVRIG cells (HEK OE).
Test [9] deals with T1, human PVRIG on cells. Description: FACS, human PBMC, CD8+ T cells, 10ug/ml.
In test [10] the target is T1, human PVRIG on cells. Description: FACS, human PBMC, CD8+ T cells, 10ug/ml. This is another data set of the same source.
Test [11] deals with T1, human PVRIG on cells. Description: FACS, Jurkat cells, relative to control, 3.3ug/ml.
In test [12] the target is T2, cynomolgus PVRIG on cells. Nature of the test: FACS, expi cPVRIG over expi parental cells, 3.3ug/ml. The source holds these as a separate data set.
Test [13] addresses T1, human PVRIG on cells. Description: FACS, human PBMC, CD8+ T cells, 10ug/ml. This is another data set of the same source.
In test [14] the target is T1, human PVRIG on cells. Nature of the test: FACS, human PBMC, CD56 int. NK cells, 10ug/ml. The source holds these as a separate data set.
The target of a further test is T4, human TIGIT on cells (human, UniProt Q495A1 22-141).
T4 construct: also called Expi293 human TIGIT over-expressing cells
T4 sequence: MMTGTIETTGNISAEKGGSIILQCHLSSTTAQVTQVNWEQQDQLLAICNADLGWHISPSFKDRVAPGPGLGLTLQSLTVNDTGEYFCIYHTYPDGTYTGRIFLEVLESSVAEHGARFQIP
Description: flow cytometry of fab; MFI on human TIGIT over-expressing Expi293 / MFI on parental Expi293.

B1: CHA.7.506 (antibody, V domains shown)
VH: QVQLQQSGAELTRPGASVNLSCKASGYTFTSYWMQWVKQRPGQGLEWIGAIYPGDGDTRFNQKFKGKATLTADESSSTAYMQLSSLASEDSAVYYCATYYRYDDYWGQGTTLTVSS
VL: QIVLTQSPAIMSASPGEKVTMTCSASSSVSYMHWYQQKSGTSPKRWIYDTSKLASGVPTRFSGSGSGTSYSLTISSMEAEDAATYYCQQWSSNPYTFGGGTKLEIK
B1: the “gMFIr HEK OE/par” value with human PVRIG on cells [1] amounted to 0.76. In addition, the “gMFIr Expi cyno OE/par” value in test [2] and in test [4] was 0.77 in each case. Besides, the IC50 in test [3] and in [5] was 31.6 nM in each case.

B2: CHA.7.502 (antibody, V domains shown)
VH: DVQLVESGGDLVQPGGSRKLSCTASGFTFSNFGMHWVRQAPEKGLEWVAYISSGSSTIYYADTVKGRFTISRDNPENTLFLQMTSLRSEDTAMYYCTRLDYYTNSYSMDHWGQGTSVTVSS
VL: QIVLTQSPALMSASPGEKVTLTCSASSSLPYIYWYQQKPGSSPKPWIYLTSNLASGVPARFSGSRSGTSYSLTISSVEAEDAATYYCQQWSSNPFTFGSGTKLEIK
For the molecule B2, the “gMFIr Human CD56 int. NK” value in the test with human PVRIG on cells [6] and with human PVRIG on cells [7] was 1.97 each time. Besides, the “gMFIr HEK OE/par” value with human PVRIG on cells [1] turned out to be 72. For the same molecule, the “gMFIr Expi cyno OE/par” value in test [2] and in test [4] was 60.5 throughout. Moreover, the IC50 in test [3] and in [5] was 39.9 nM in each case. Further, the EC50 – broadly, the concentration at which the effect is half-maximal – with human PVRIG on cells [8] turned out to be 40.2 nM. The “gMFIr Human CD8+ T cells” value in the test with human PVRIG on cells [9] and in the test with human PVRIG on cells [10] was 1.41 throughout. Also, the “gMFIr Jurkat” value with human PVRIG on cells [11] was 6.21.

B3: CHA.7.526 (antibody, V domains shown)
VH: QVQLKESGPGLVAPSQSLSITCTVSGFSLTAYNINWVRQPPGKGLEWLGMIWGDGNTDYNSPLKSRLTISKDNSKSQVFLKMDSLQTDDTARYYCARDLKVRRDSPYTMDYWGQGTSVTVSS
VL: NIMMTQSPSSLAVSAGEKVTMSCKSSQSVLYSSNQKNYLAWYQQKPGQSPKLLIYWASNRESGVPDRFTGSGSGTDFTLTISSVQAEDLAVYYCHQYLSSYTFGGGTKLEIK
B3: the “gMFIr Expi cyno OE/par” value in test [12] and in [2] was 0.79 in each case. Moreover, the “gMFIr HEK OE/par” value with human PVRIG on cells [1] stood at 47.3. Besides, the IC50 in test [3] and in [5] was 58.9 nM throughout. The “gMFIr Human CD56 int. NK” value in the test with human PVRIG on cells [7] and in the test with human PVRIG on cells [14] was 2.08 each time. Further, the EC50 with human PVRIG on cells [8] came out at 2.99 nM. For the same molecule, the “gMFIr Human CD8+ T cells” value with human PVRIG on cells [13] and with human PVRIG on cells [10] was 1.71 in each case. Besides, the “gMFIr Jurkat” value with human PVRIG on cells [11] came to 3.98.

B4: CPA.9.057 (Fab, V domains shown)
VH: QVQLQESGPGLVKPSETLSLTCTVSGGSISSSSYYWGWIRQPPGKGLEWIGSIYYSGSTYYNPSLKSRVTISVDTSKNQFSLKLSSVTAADTAVYYCARQGAAAGNPFDIWGQGTMVTVSS
VL: QSVLTQPPSVSGTPGQRVTISCSGSSSNIGSNFVYWHQQLTGTAPKLLIYRNTQRPSGVPDRFSGSKSGTSASLAIGGLRSEDEADYYCATWDDSLSAWVFGGGTKLTVL
notes: phage fab, campaign 2; fab form of CPA.9.057-H4; also called CPA.9.057 (fab)
For the molecule B4, in the test with human TIGIT on cells, the “MFIr (OE/Par) hTIGIT” value was determined as 30.

B5: CPA.9.018 (Fab, V domains shown)
VH: QVQLVESGGGLVQPGGSLRLSCAASGFTFSSYGMHWVRQAPGKGLEWVAFIRYDGSNKYYADSVKGRFTISRDNSKNTLYLQMNSLRAEDTAVYYCAKEMLVQDYYYMDVWGQGTTVTVSS
VL: DVVMTQSPLSLPVSPGEPASISCRSSQNLLHRNGINYLNWYLQKPGQSPQLLIYWGSNRASGVPDRFSGSGSGTDFTLKISRVEAEDVGVYYCMQGLQIPPTFGQGTKVDIK
notes: phage fab, campaign 1; fab form of CPA.9.018-H4; also called CPA.9.018 (fab)
Take B5: in the test with human TIGIT on cells, the “MFIr (OE/Par) hTIGIT” value stood at 16.

B6: CPA.9.059 (Fab, V domains shown)
VH: EVQLVETGGGLIQPGGSLRLSCAASGFTVSSNYMSWVRQAPGKGLEWVSVIYSGGSTYYADSVKGRFTISRDNSKNTLYLQMNSLRAEDTAVYYCARGARYSYGQYPYWGQGTLVTVSS
VL: DIQLTQSPSFLSASVGDRVTITCRASHDISSLFSWYQQKPGKAPKLLIYAASTLQTGVPSRFSGSASGTEFTLTISSLQPEDFATYYCLQLDSFPTWTFGQGTKVEIK
notes: phage fab, campaign 2; fab form of CPA.9.059 hIgG4 (m73); also called CPA.9.059 (fab)
For B6, the “MFIr (OE/Par) hTIGIT” value with human TIGIT on cells is 11.

B7: CHA.7.503 (antibody, V domains shown)
VH: QVQLQQSGAELAKPGASVKMSCKASGYTFTSNWMHWVKQRPGQGLEWIGYINPSNGYTECNQKFRDKATLSADKSSSTAYMQLNSLTSADSAVYYCALMISAWLPYWGQGTLVTVSA
VL: DIVLTQSPASLAISLGQRATISCRASQSVSASSYSYVHWYQQKPGQPPKLLIKYASSLESGVPARFSGSGSGTDFTLNIHPVEEEDTATYYCLHTWEIPYTFGGGTKLEIK
Turning to B7, the “gMFIr Human CD56 int. NK” value in the test with human PVRIG on cells [6] and with human PVRIG on cells [7] was 3.15 each time. For the same molecule, the “gMFIr HEK OE/par” value in the test with human PVRIG on cells [1] is 261. In addition, the “gMFIr Expi cyno OE/par” value in test [2] and in test [4] was 106 each time. In the test with human PVRIG on cells [8], this molecule returned an EC50 of 1.05 nM. Besides, the “gMFIr Human CD8+ T cells” value in the test with human PVRIG on cells [9] and with human PVRIG on cells [10] was 1.96 each time. In the test with human PVRIG on cells [11], the “gMFIr Jurkat” value is 23.6.

B8: CHA.7.534 (antibody, V domains shown)
VH: EVQLQQSGAELVKPGASVRLSCTASGFSIRDTYIHWVKQRPEQGLDWIGKIDPANGKSEYDPKFQGRATMTTDTSSNTAYLQLSSLTSEDTAVYYCTRYGYYPYFDVWGAGTTVTVFS
VL: SIVMTQTPKFLLVSAGDRVAITCKASQSVRHDVVWYQQKPGQSPKLLIYYASSRYTGVPDRFTGSGYGTDFTFTISTVQAEDLALYFCLQDFSSPWTFGGGTKLEIK
As to B8, the “gMFIr Expi cyno OE/par” value in test [12] and in test [2] was 46.3 throughout. The “gMFIr HEK OE/par” value with human PVRIG on cells [1] is 43.7. The IC50 in [3] and in test [5] was 181 nM in each case. Moreover, the “gMFIr Human CD56 int. NK” value with human PVRIG on cells [7] and with human PVRIG on cells [14] was 2.6 throughout. The molecule further displayed an EC50 in the test with human PVRIG on cells [8] of 1.87 nM. Besides, the “gMFIr Human CD8+ T cells” value with human PVRIG on cells [13] and in the test with human PVRIG on cells [10] was 1.96 throughout. Moreover, the “gMFIr Jurkat” value in the test with human PVRIG on cells [11] was 5.05.

B9: CHA.7.535 (antibody, V domains shown)
VH: EVQLQQSGPELVKPGASVKISCKTSGYTFTKNTMHWVRQSHGKSLEWIGGINPNSGGASFNQKFMGKATLTVDKSSSTAYMELRSLTSEDSAVYYCARDGYDGDWFFDVWGAGTTVTVSS
VL: DIQMNQSPFSLSASLGDTVTITCHASQNIYVWLSWYQQKPGNIPKLLIYKASDLHTGVPSRFSGSGSGTDFTLNISSLQPEDIATYYCQQGQSYPRTFGGGTKLEIK
As for B9, the “gMFIr Expi cyno OE/par” value in [12] and in test [2] was 0.82 each time. For the same molecule, the “gMFIr HEK OE/par” value in the test with human PVRIG on cells [1] amounted to 40.4. For the same molecule, the IC50 in [3] and in test [5] was 821 nM throughout. Besides, the “gMFIr Human CD56 int. NK” value with human PVRIG on cells [7] and with human PVRIG on cells [14] was 2.24 throughout. The molecule also displayed a concentration giving a half-maximal response (EC50) in the test with human PVRIG on cells [8] of 3.67 nM. The “gMFIr Human CD8+ T cells” value with human PVRIG on cells [13] and with human PVRIG on cells [10] was 1.28 in each case. For the same molecule, in the test with human PVRIG on cells [11], the “gMFIr Jurkat” value was 2.79.

(Values after patent publication US20240075137A1 (COMPUGEN, published 2024).)
